Biological target: T1, biotinylated CD59 (Homo sapiens, UniProt P13987)
T1 construct: Recombinant soluble human CD59 with an additional C-terminal cysteine residue
T1 sequence (P13987 26-102 limits assumed): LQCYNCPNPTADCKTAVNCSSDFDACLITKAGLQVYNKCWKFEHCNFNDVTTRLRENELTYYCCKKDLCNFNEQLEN
Experiment: mRNA-display cyclic peptide screen against CD59-biotin, NGS abundance after 6th selection round
Conditions: for Percentage Seq I: counts normalised by total counts of sample Seq I; for Percentage Seq I / Percentage Seq II: percentage of the pool; for Percentage Seq I / Percentage Seq II / Percentage Average / Percentage of the pool, averaged across the two sequencing samples / Percentage of the pool, Seq I / Percentage of the pool, Seq II: sheet R6; for Percentage Seq II: counts normalised by total counts of sample Seq II; for Percentage Average: percentage of the pool averaged across the two sequencing samples; for Counts Seq I / Counts Seq II: raw NGS counts of peptide sequence; for Counts Seq I: sequencing sample Seq I; for Counts Seq I / Counts Seq II / Counts (raw counts for peptide sequence), Seq I / Counts (raw counts for peptide sequence), Seq II: sheet R6 (6th selection round); for Counts Seq II: sequencing sample Seq II; for Counts (raw counts for peptide sequence), Seq I: NGS sample Seq I; for Counts (raw counts for peptide sequence), Seq II: NGS sample Seq II; for Percentage of the pool, averaged across the two sequencing samples: average of Seq I and Seq II; for Percentage of the pool, Seq I: counts normalised by total counts of NGS sample Seq I; for Percentage of the pool, Seq II: counts normalised by total counts of NGS sample Seq II
Method in brief: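 Peptide–mRNA fusions were made by in vitro translation with a customised PURE express kit. The kit lacked release factor 1 and methionine and was supplemented with […] initiator tRNA carrying N-chloroacetyl-d-tyrosine. Thioether macrocycles were formed, then enriched and amplified over iterative rounds on CD59-biotin immobilised on streptavidin beads. NGS read counts per sequence were recorded after the 6th selection round.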

Sequence: RAWGNRYIAYY
- Percentage Seq I: 0.027%
- Percentage Seq II: 0.030%
- Percentage Average: 0.029%
- Counts Seq I: 119
- Counts Seq II: 13

Sequence: FVTGNRGHTRG
- Percentage Seq I: 0.024%
- Percentage Seq II: 0.016%
- Percentage Average: 0.020%
- Counts Seq I: 105
- Counts Seq II: 7

Sequence: HCWVRGSRNYA
- Percentage Seq I: 0.029%
- Percentage Seq II: 0.028%
- Percentage Average: 0.029%
- Counts Seq I: 128
- Counts Seq II: 12

Sequence: VARGNSNTVWG
- Percentage Seq I: 0.019%
- Percentage Seq II: 0.021%
- Percentage Average: 0.020%
- Counts Seq I: 85
- Counts Seq II: 9

Sequence: WTRGSKDYTRG
- Percentage Seq I: 0.168%
- Percentage Seq II: 0.167%
- Percentage Average: 0.168%
- Counts Seq I: 737
- Counts Seq II: 72

Sequence: HVFGNRFFTRG
- Percentage Seq I: 0.031%
- Percentage Seq II: 0.039%
- Percentage Average: 0.035%
- Counts Seq I: 135
- Counts Seq II: 17

Sequence: CFTNRLDNSST
- Percentage Seq I: 0.072%
- Percentage Seq II: 0.067%
- Percentage Average: 0.070%
- Counts Seq I: 314
- Counts Seq II: 29

Sequence: FVTGNRNHTRG
- Percentage Seq I: 0.032%
- Percentage Seq II: 0.028%
- Percentage Average: 0.030%
- Counts Seq I: 142
- Counts Seq II: 12

Sequence: CFSRRLAAGAI
- Counts (raw counts for peptide sequence), Seq I: 35
- Counts (raw counts for peptide sequence), Seq II: 5
- Percentage of the pool, averaged across the two sequencing samples: 0.010%
- Percentage of the pool, Seq I: 0.008%
- Percentage of the pool, Seq II: 0.012%

Sequence: FVRGDLYPVLG
- Counts (raw counts for peptide sequence), Seq I: 65
- Counts (raw counts for peptide sequence), Seq II: 5
- Percentage of the pool, averaged across the two sequencing samples: 0.013%
- Percentage of the pool, Seq I: 0.015%
- Percentage of the pool, Seq II: 0.012%

Sequence: PWTWGNRSSVRG
- Counts (raw counts for peptide sequence), Seq I: 49
- Counts (raw counts for peptide sequence), Seq II: 10
- Percentage of the pool, averaged across the two sequencing samples: 0.017%
- Percentage of the pool, Seq I: 0.011%
- Percentage of the pool, Seq II: 0.023%

Sequence: SWTWGNRSSVSG
- Counts (raw counts for peptide sequence), Seq I: 73
- Counts (raw counts for peptide sequence), Seq II: 2
- Percentage of the pool, averaged across the two sequencing samples: 0.011%
- Percentage of the pool, Seq I: 0.017%
- Percentage of the pool, Seq II: 0.00464%

Sequence: VARGSKDWRWS
- Counts (raw counts for peptide sequence), Seq I: 41
- Counts (raw counts for peptide sequence), Seq II: 6
- Percentage of the pool, averaged across the two sequencing samples: 0.012%
- Percentage of the pool, Seq I: 0.009%
- Percentage of the pool, Seq II: 0.014%

Sequence: NYVERLCTSG
- Counts (raw counts for peptide sequence), Seq I: 68
- Counts (raw counts for peptide sequence), Seq II: 5
- Percentage of the pool, averaged across the two sequencing samples: 0.014%
- Percentage of the pool, Seq I: 0.016%
- Percentage of the pool, Seq II: 0.012%

Sequence: ITRGSNIYAYG
- Counts (raw counts for peptide sequence), Seq I: 79
- Counts (raw counts for peptide sequence), Seq II: 6
- Percentage of the pool, averaged across the two sequencing samples: 0.016%
- Percentage of the pool, Seq I: 0.018%
- Percentage of the pool, Seq II: 0.014%

Sequence: CFANRLYGSDSH
- Percentage Seq I: 0.031%
- Percentage Seq II: 0.035%
- Percentage Average: 0.033%
- Counts Seq I: 135
- Counts Seq II: 15

Sequence: TILGNKHYVRG
- Percentage Seq I: 0.140%
- Percentage Seq II: 0.160%
- Percentage Average: 0.150%
- Counts Seq I: 614
- Counts Seq II: 69

Sequence: RGGTRDTIWG
- Percentage Seq I: 0.078%
- Percentage Seq II: 0.063%
- Percentage Average: 0.070%
- Counts Seq I: 340
- Counts Seq II: 27

Sequence: CFASRTLLNTSV
- Percentage Seq I: 0.102%
- Percentage Seq II: 0.104%
- Percentage Average: 0.103%
- Counts Seq I: 446
- Counts Seq II: 45

Sequence: LLGARDYVRLWH
- Counts (raw counts for peptide sequence), Seq I: 41
- Counts (raw counts for peptide sequence), Seq II: 7
- Percentage of the pool, averaged across the two sequencing samples: 0.013%
- Percentage of the pool, Seq I: 0.009%
- Percentage of the pool, Seq II: 0.016%

Sequence: DPICTRYNDPR
- Counts (raw counts for peptide sequence), Seq I: 46
- Counts (raw counts for peptide sequence), Seq II: 5
- Percentage of the pool, averaged across the two sequencing samples: 0.011%
- Percentage of the pool, Seq I: 0.011%
- Percentage of the pool, Seq II: 0.012%

Sequence: YVFWSRTHTYG
- Percentage Seq I: 0.172%
- Percentage Seq II: 0.165%
- Percentage Average: 0.168%
- Counts Seq I: 751
- Counts Seq II: 71

Sequence: CFSARAILDGGW
- Percentage Seq I: 0.249%
- Percentage Seq II: 0.248%
- Percentage Average: 0.249%
- Counts Seq I: 1089
- Counts Seq II: 107

Sequence: VARGDWNHQFY
- Counts (raw counts for peptide sequence), Seq I: 40
- Counts (raw counts for peptide sequence), Seq II: 7
- Percentage of the pool, averaged across the two sequencing samples: 0.013%
- Percentage of the pool, Seq I: 0.009%
- Percentage of the pool, Seq II: 0.016%

Sequence: GRLNECHVIWS
- Percentage Seq I: 0.015%
- Percentage Seq II: 0.037%
- Percentage Average: 0.026%
- Counts Seq I: 65
- Counts Seq II: 16

Sequence: FIRGDSTSVLF
- Counts (raw counts for peptide sequence), Seq I: 54
- Counts (raw counts for peptide sequence), Seq II: 6
- Percentage of the pool, averaged across the two sequencing samples: 0.013%
- Percentage of the pool, Seq I: 0.012%
- Percentage of the pool, Seq II: 0.014%

Sequence: GRLNECHVIRP
- Counts (raw counts for peptide sequence), Seq I: 43
- Counts (raw counts for peptide sequence), Seq II: 7
- Percentage of the pool, averaged across the two sequencing samples: 0.013%
- Percentage of the pool, Seq I: 0.010%
- Percentage of the pool, Seq II: 0.016%

Sequence: STKNDYNNVPC
- Percentage Seq I: 0.012%
- Percentage Seq II: 0.026%
- Percentage Average: 0.019%
- Counts Seq I: 54
- Counts Seq II: 11

Sequence: ARGGPTWSRG
- Percentage Seq I: 0.034%
- Percentage Seq II: 0.037%
- Percentage Average: 0.035%
- Counts Seq I: 147
- Counts Seq II: 16

Sequence: SWTWGNRSSARG
- Percentage Seq I: 0.025%
- Percentage Seq II: 0.035%
- Percentage Average: 0.030%
- Counts Seq I: 110
- Counts Seq II: 15

Sequence: CFSRRLTAGAV
- Percentage Seq I: 0.031%
- Percentage Seq II: 0.030%
- Percentage Average: 0.030%
- Counts Seq I: 134
- Counts Seq II: 13

Sequence: CFARRLSASFGT
- Percentage Seq I: 1.002%
- Percentage Seq II: 0.935%
- Percentage Average: 0.969%
- Counts Seq I: 4384
- Counts Seq II: 403

Sequence: CFVNRLRSAESR
- Percentage Seq I: 0.141%
- Percentage Seq II: 0.144%
- Percentage Average: 0.143%
- Counts Seq I: 618
- Counts Seq II: 62

Sequence: RTCHLRHDGPHA
- Counts (raw counts for peptide sequence), Seq I: 59
- Counts (raw counts for peptide sequence), Seq II: 6
- Percentage of the pool, averaged across the two sequencing samples: 0.014%
- Percentage of the pool, Seq I: 0.013%
- Percentage of the pool, Seq II: 0.014%

Sequence: SAWGNRQIQYC
- Percentage Seq I: 0.039%
- Percentage Seq II: 0.028%
- Percentage Average: 0.033%
- Counts Seq I: 170
- Counts Seq II: 12

Sequence: YSSGSRHWTRS
- Counts (raw counts for peptide sequence), Seq I: 57
- Counts (raw counts for peptide sequence), Seq II: 7
- Percentage of the pool, averaged across the two sequencing samples: 0.015%
- Percentage of the pool, Seq I: 0.013%
- Percentage of the pool, Seq II: 0.016%

Sequence: FVSGNRDHTRG
- Counts (raw counts for peptide sequence), Seq I: 51
- Counts (raw counts for peptide sequence), Seq II: 5
- Percentage of the pool, averaged across the two sequencing samples: 0.012%
- Percentage of the pool, Seq I: 0.012%
- Percentage of the pool, Seq II: 0.012%

Sequence: CFSRRTSVPNTT
- Percentage Seq I: 0.209%
- Percentage Seq II: 0.190%
- Percentage Average: 0.200%
- Counts Seq I: 914
- Counts Seq II: 82

Sequence: CFGGRTFIYAWS
- Counts (raw counts for peptide sequence), Seq I: 34
- Counts (raw counts for peptide sequence), Seq II: 5
- Percentage of the pool, averaged across the two sequencing samples: 0.010%
- Percentage of the pool, Seq I: 0.008%
- Percentage of the pool, Seq II: 0.012%

Sequence: HCWARGSRNYT
- Percentage Seq I: 0.041%
- Percentage Seq II: 0.035%
- Percentage Average: 0.038%
- Counts Seq I: 180
- Counts Seq II: 15

Sequence: SSWAQVPCYS
- Percentage Seq I: 0.040%
- Percentage Seq II: 0.032%
- Percentage Average: 0.036%
- Counts Seq I: 175
- Counts Seq II: 14

Sequence: SAWGNQQIQYY
- Percentage Seq I: 0.028%
- Percentage Seq II: 0.026%
- Percentage Average: 0.027%
- Counts Seq I: 124
- Counts Seq II: 11

Sequence: SSWAQLPCRR
- Percentage Seq I: 0.066%
- Percentage Seq II: 0.070%
- Percentage Average: 0.068%
- Counts Seq I: 289
- Counts Seq II: 30

Sequence: CFRNRVLEITST
- Percentage Seq I: 0.042%
- Percentage Seq II: 0.032%
- Percentage Average: 0.037%
- Counts Seq I: 183
- Counts Seq II: 14

Sequence: NSCPDWVRGSRT
- Percentage Seq I: 0.229%
- Percentage Seq II: 0.262%
- Percentage Average: 0.246%
- Counts Seq I: 1002
- Counts Seq II: 113

Sequence: FISGSRSWRKQ
- Percentage Seq I: 0.036%
- Percentage Seq II: 0.023%
- Percentage Average: 0.030%
- Counts Seq I: 159
- Counts Seq II: 10

From article PMC12207370, “Macrocyclic Peptide Probes for Immunomodulatory Protein CD59: Potent Modulators of Bacterial Toxin Activity and Antibody‐Dependent Cytotoxicity” (Angewandte Chemie (International Ed. in English), 2025)
